This note sets out measurements from patent publication US20060251733A1.

This experiment concerns the target FcγR (receptor for the Fc portion of immunoglobulin molecule) on bone marrow derived macrophages (mouse). The experiment in a line: cell-based or functional assay.

As for “IgG-opsonized erythrocytes (E-IgG): sheep erythrocytes (SRBC) opsonized with rabbit IgG antibody to SRBC”, the IL-10 production by BMMφ (ELISA of supernatants), LPS + E-IgG is 10 ng/mL and the IL-10 production by BMMφ (ELISA of supernatants), LPS + E-IgG against LPS alone is greater than 5 fold.
